Source: paper PMC5750471

B1: TREM2 (triggering receptor expressed on myeloid cells 2) with a Myc-tag at the C terminus, wild type [human] / presenilin 1 (PS1), wild type [not stated] (parent)
chain 1: HNTTVFQGVAGQSLQVSCPYDSMKHWGRRKAWCRQLGEKGPCQRVVSTHNLWLLSFLRRWNGSTAITDDTLGGTLTITLRNLQPHDAGLYQCQSLHGSEADTLRKVLVEVLADPLDHRDAGDLWFPGESESFEDAHVEHSISRSLLEGEIPFPPTSILLLLACIFLIKILAASALWAAAWHGQKPGTHPPSELDCGHDPGYQLQTLPGLRDT
chain 2: not shown

Variants of: B1
Assay: co-immunoprecipitation with PS1 antibody Ab14, immunoblot band quantification
Settings: with presenilin 1 (PS1), HEK293 cells stably expressing Myc-tagged TREM2, transfected with PS1, n=3, read off a plot

| ratio to parent (arbitrary unit) | Variant |
| --- | --- |
| 1.2 | chain 1 T78K |
| 0.68 | chain 1 T48M |
| 1.2 | chain 1 R29H |
